Measurements: PMC7225076
Read-outs that look alike come from different tables or passages of the source.

Tests used:
Assay in all cases: EMSA
WT mDHX36 (46-982) [1] = target: T1, WT mDHX36 (46-982) (Mus musculus, UniProt B2RQS6 46-982)
T1 sequence: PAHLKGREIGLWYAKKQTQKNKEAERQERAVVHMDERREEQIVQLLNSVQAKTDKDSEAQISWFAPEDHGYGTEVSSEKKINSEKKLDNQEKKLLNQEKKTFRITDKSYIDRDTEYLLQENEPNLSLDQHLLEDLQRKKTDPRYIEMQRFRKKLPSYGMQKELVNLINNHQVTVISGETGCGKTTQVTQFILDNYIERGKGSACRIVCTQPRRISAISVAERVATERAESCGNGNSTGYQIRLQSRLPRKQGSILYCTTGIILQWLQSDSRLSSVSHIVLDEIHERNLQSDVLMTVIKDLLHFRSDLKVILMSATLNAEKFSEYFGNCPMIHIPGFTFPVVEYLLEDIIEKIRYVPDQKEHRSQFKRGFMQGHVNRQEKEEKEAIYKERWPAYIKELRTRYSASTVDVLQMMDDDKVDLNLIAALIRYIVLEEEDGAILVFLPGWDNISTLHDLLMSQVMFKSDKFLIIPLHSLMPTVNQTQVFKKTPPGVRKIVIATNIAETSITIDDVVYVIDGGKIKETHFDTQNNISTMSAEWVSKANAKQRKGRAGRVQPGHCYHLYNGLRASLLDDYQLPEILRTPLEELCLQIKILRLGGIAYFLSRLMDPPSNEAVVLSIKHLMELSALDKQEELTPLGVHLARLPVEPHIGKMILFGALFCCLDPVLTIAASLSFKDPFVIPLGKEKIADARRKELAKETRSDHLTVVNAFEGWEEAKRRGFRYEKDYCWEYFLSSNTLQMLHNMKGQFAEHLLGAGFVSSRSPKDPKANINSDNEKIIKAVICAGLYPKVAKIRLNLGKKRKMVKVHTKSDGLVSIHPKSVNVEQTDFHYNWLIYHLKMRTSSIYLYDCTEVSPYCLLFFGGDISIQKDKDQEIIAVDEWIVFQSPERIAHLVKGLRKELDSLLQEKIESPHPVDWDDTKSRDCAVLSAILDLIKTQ

WT mDHX36 (46-982) [2] = target: T1, WT mDHX36 (46-982); remark: listed apart in the source
mDHX36 delta-OB-fold = target: T2, mDHX36 delta-OB-fold (Mus musculus, UniProt B2RQS6 46-834+895-981, internal_change)
T2 sequence: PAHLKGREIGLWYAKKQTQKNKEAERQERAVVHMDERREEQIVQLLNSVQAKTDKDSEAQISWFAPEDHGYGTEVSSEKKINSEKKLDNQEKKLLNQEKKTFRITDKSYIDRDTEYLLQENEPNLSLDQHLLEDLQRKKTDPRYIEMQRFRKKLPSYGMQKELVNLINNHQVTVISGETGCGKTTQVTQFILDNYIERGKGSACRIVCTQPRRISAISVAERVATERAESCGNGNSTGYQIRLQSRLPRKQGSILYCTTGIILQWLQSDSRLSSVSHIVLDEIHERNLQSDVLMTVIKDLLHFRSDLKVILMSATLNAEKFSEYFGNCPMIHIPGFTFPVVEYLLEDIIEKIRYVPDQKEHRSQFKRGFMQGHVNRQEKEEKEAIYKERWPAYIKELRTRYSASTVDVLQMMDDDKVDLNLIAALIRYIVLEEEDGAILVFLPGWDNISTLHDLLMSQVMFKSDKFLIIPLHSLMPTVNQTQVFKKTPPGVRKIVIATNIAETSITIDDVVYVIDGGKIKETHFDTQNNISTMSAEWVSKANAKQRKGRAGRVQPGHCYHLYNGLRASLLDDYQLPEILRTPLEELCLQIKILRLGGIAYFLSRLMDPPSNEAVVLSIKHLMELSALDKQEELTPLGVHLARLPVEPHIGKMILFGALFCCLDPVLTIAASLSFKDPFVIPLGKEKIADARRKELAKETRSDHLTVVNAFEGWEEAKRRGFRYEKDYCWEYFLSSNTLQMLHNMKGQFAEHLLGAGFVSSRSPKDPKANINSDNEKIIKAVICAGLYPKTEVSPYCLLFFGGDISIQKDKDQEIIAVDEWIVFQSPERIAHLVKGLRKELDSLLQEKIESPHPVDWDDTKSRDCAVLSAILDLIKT

B1: RNA duplex R16/R31 (dsRNA)
RNA 1: AGCACCGUAAAGACGC
RNA 2: GCGUCUUUACGGUGCUAAAAAAAAAAAAAAA
B1: binds (WT mDHX36 (46-982) [1]).

B2: GQI (GQ1) intramolecular RNA G-quadruplex (structured_RNA)
RNA: UUAGGGGGAGGGGGAUGGGGGAGGGGGAAAAAAAAAAAAAAA
B2 was tested, and the binding result (WT mDHX36 (46-982) [2]) was “binds” and the “apparent K (half saturation)” value (mDHX36 delta-OB-fold) was about 50 nM.
